Experimental data published in PMC6194859.

Molecular target: T1, PhoB~P (phosphorylated PhoB) (Escherichia coli) (UniProt P0AFJ5)
T1 sequence: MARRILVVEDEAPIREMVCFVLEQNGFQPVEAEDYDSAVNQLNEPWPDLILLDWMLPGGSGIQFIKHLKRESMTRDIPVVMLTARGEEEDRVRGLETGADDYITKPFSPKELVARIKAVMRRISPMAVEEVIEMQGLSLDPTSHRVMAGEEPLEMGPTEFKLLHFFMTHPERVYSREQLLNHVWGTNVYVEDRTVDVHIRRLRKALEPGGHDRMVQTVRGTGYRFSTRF
Assay: EMSA
Conditions: phosphoramidate-phosphorylated PhoB, 50 mM Tris pH 7.6, 200 mM NaCl, 0.1 mg/ml BSA, 2 mM MgCl2, 1 mM DTT, 5% glycerol, ~0.1 uM DNA (mM in the source), 15 uM nonfluorescent competitor dsDNA, 30 min, 12% …

| Sequence | Kd (Hill fit) [mM] | Kd (two-site per DNA binding model) [mM] |
| --- | --- | --- |
| CTGCAGGAAGAAGGAAAACGCTGGTTTGACAATCTTGCCGCTAACGGAAAAATCGAAATGGCCTGGCAGGAAACTTTCTGGGCGCATGGCTTTGGCAAAGTCACCGATAAATTTGGCGTACCGTGGATGATTAATGTCGTCAAACAACAACCAACGCAATAACCCGCCGGGAGGCCCGCCCTCCCGCACTGTCATCGAATTCCCGTTAACTCTTCATCTGTTAGTCACTTTTAATTAACCAAATCGTCACAATAATCCGCCACGATGGAGCCACTTTTTTAGGGAGGCTGCATCATGCAAACGATTTGATCTAGAAATAATTTTGTTTAACTTTAAGAAGGAGATATACAAATGGTGAGC (double strand) [phnC promoter] | 0.0017 | – |
| GCCACGGAAATCAATAACCTGAAGATATGTGCGACGAGCTTTTCATAAATCTGTCATAAATCTGACGCATAATGACGTCGCATTAATGATCGCAACCTATTTATTACAACAGGGCTGATCTAGAAATAATTTTGTTTAACTTTAAGAAGGAGATATACAAATGGTGAGC (double strand) [phoB promoter] | – | 0.00025 |
